The source of these data is patent US20260109774A1 (JUNO THERAPEUTICS, published 2026).

The target in assay [1] is T1, BCMA-Fc (soluble human BCMA fused at its C-terminus to an Fc region of IgG) (human, UniProt Q02223 1-54).
T1 construct: also called hBCMA-Fc; hBMCA-Fc
T1 sequence: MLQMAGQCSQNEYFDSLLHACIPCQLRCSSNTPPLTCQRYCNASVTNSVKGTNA
As to the kind of experiment: flow cytometry, T cells transduced with Non-SSE construct, CD4 gate, recombinant BCMA-Fc (rBCMA) staining against surrogate marker. On the procedure:
(§1) Lentiviral constructs containing anti-BCMA CAR-encoding polynucleotides with starting and optimized sequences, respectively, as described in Example 3, were transduced into T cells and transduced cells were analyzed for transduction (based on expression of a surrogate marker) and for CAR expression based on binding to recombinant BCMA-Fc fusion protein by flow cytometry.
Background: In flow cytometry, cells or beads pass a laser one at a time.

The target of assay [2] is T1, BCMA-Fc (soluble human BCMA fused at …). The assay can be described thus: flow cytometry, T cells transduced with O/SSE construct, CD4 gate, recombinant BCMA-Fc (rBCMA) staining against surrogate marker. On the procedure: as §1
Assay [3] has as its target T2, recombinant human BCMA-hFc (human, UniProt Q02223 1-54, biotinylated in the kinetic exclusion assay of paragraph 546).
T2 construct: also called rhBCMA hFc; recombinant human BCMA fusion protein
T2 sequence: T1 sequence
The assay can be described thus: kinetics exclusion assay, CAR expressed on a Jurkat T cell line, rhBCMA hFc in solution; CAR on Jurkat cells, kinetics exclusion assay (not the scFv-Fc by Biacore). On the procedure: A CAR with a BCMA-55-derived scFv binding domain, a modified IgG-derived CH2-CH3-hinge spacer, a CD28 transmembrane domain, and 41BB and CD3zeta endodomain, was expressed in a Jurkat T cell line. Kinetics of binding by the CAR to recombinant human BCMA-hFc (rhBCMA hFc) was assessed using a kinetics exclusion assay. Affinity of binding of an Fc fusion protein containing the scFv portion of the CAR (scFv-Fc) to recombinant human BCMA fusion protein was also assessed using a Biacore-based assay.

Assay [4] has as its target T1, BCMA-Fc (soluble human BCMA fused at …). The assay can be described thus: flow cytometry, T cells transduced with O/SSE construct, CD8 gate, recombinant BCMA-Fc (rBCMA) staining against surrogate marker. On the procedure:
as §1

Assay [5] deals with T2, recombinant human BCMA-hFc. The assay can be described thus: KinExA kinetic exclusion assay, CAR-expressing Jurkat cells titrated into 20 nM or 1 nM biotinylated rhBCMA hFc.
Assay [6] has as its target T1, BCMA-Fc (soluble human BCMA fused at …). As to the kind of experiment: flow cytometry, T cells transduced with Non-SSE construct, CD8 gate, recombinant BCMA-Fc (rBCMA) staining against surrogate marker. On the procedure: as §1
For assay [7], the target named is T3, human B-cell maturation antigen (BCMA) on cells (human, UniProt Q02223 1-184).
T3 construct: Recombinant on HEK293 or K562 cells, or endogenous on cell lines (H929, RPMI 8226, OPM2, MM1S, Daudi); also called hBCMA; huBCMA
T3 chain: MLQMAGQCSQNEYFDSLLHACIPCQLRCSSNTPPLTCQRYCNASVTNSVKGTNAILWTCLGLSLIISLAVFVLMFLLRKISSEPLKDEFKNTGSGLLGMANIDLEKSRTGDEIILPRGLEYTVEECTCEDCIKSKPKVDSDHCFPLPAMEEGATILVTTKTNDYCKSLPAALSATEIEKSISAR
As to the kind of experiment: membrane proteome array on transfected HEK293 cells (Retrogenix).

Assay [8] addresses T2, recombinant human BCMA-hFc. The assay can be described thus: Biacore-based assay (SPR).

For orientation: Kd means the free concentration of one partner at which half of the binding sites on the other are occupied at equilibrium, for simple one-to-one binding.

B1: BCMA-55-LS CAR (other)
chain: QSALTQPASVSASPGQSIAISCTGTSSDVGWYQQHPGKAPKLMIYEDSKRPSGVSNRFSGSKSGNTASLTISGLQAEDEADYYCSSNTRSSTLVFGGGTKLTVLGSRGGGGSGGGGSGGGGSLEMAEVQLVQSGAEMKKPGASLKLSCKASGYTFIDYYVYWMRQAPGQGLESMGWINPNSGGTNYAQKFQGRVTMTRDTSISTAYMELSRLRSDDTAMYYCARSQRDGYMDYWGQGTLVTVSSESKYGPPCPPCPAPPVAGPSVFLFPPKPKDTLMISRTPEVTCVVVDVSQEDPEVQFNWYVDGVEVHNAKTKPREEQFQSTYRVVSVLTVLHQDWLNGKEYKCKVSNKGLPSSIEKTISKAKGQPREPQVYTLPPSQEEMTKNQVSLTCLVKGFYPSDIAVEWESNGQPENNYKTTPPVLDSDGSFFLYSRLTVDKSRWQEGNVFSCSVMHEALHNHYTQKSLSLSLGKMFWVLVVVGGVLACYSLLVTVAFIIFWVKRGRKKLLYIFKQPFMRPVQTTQEEDGCSCRFPEEEEGGCELRVKFSRSADAPAYQQGQNQLYNELNLGRREEYDVLDKRRGRDPEMGGKPRRKNPQEGLYNELQKDKMAEAYSEIGMKGERRRGKGHDGLYQGLSTATKDTYDALHMQALPPR
notes: Chimeric antigen receptor on T cells or Jurkat cells; also called BCMA-55-LS-O/SSE CAR; BCMA-55-LS CAR O/SSE
For B1, the “% of cells in Q1 (rBCMA+ marker-)” value in assay [1] was determined as 8.66%; in assay [2], 1.9%; in assay [4] it was 2.47%; in assay [6], 7.95%. Also, the “% of cells in Q3 (rBCMA- marker+)” value in assay [1] came out at 6.35%; in assay [2] it was 4.89%; in assay [4] it was 6.39%; in assay [6] it was 6.75%. Further, the “% of cells in Q4 (rBCMA- marker-)” value in assay [1] was 40.9%; in assay [2] it was 43%; in assay [4], 47.8%; in assay [6] it was 48.8%. In addition, the figures for the Kd in assay [3] and in assay [5] were roughly 1 nM and roughly 1.46 nM, respectively.

B2: BCMA-55 scFv-Fc fusion protein (Fc fusion, not shown: a dimerising Fc or GST)
chain: QSALTQPASVSASPGQSIAISCTGTSSDVGWYQQHPGKAPKLMIYEDSKRPSGVSNRFSGSKSGNTASLTISGLQAEDEADYYCSSNTRSSTLVFGGGTKLTVLGSRGGGGSGGGGSGGGGSLEMAEVQLVQSGAEMKKPGASLKLSCKASGYTFIDYYVYWMRQAPGQGLESMGWINPNSGGTNYAQKFQGRVTMTRDTSISTAYMELSRLRSDDTAMYYCARSQRDGYMDYWGQGTLVTVSS
notes: also called BCMA-55-Fc
As to B2, the binding result in assay [7] was “binds”. Further, the dissociation constant Kd in assay [8] is roughly 10 nM.
